Where a chain is given by its changes, count along the chain named. In names and notes the source's numbering stands.

This data set concerns the molecule itself. The experiment in a line: crystal structure.

B1: human DJ-1, wild type (natural protein)
chain: GSHMASKRALVILAKGAEEMETVIPVDVMRRAGIKVTVAGLAGKDPVQCSRDVVICPDASLEDAKKEGPYDVVVLPGGNLGAQNLSESAAVKEILKEQENRKGLIAAICAGPTALLAHEIGFGSKVTTHPLAKDKMMNGGHYTYSENRVEKDGLILTSRGPGTSFEFALAIVEALNGKEVAAQVKAPLVLKD
With B1, the “stoichiometry N” value worked out at 2.

B2: human DJ-1 D24N (natural protein)
chain: B1 chain with D27N
B2: the binding result is given as “binds”.

In general, stoichiometry N refers to a count of units in the complex or per binding partner.

Values taken from PMC5805389 (Biochemistry, 2016).
